Assay [1] concerns the target T1, unknown natural tumor antigen of the autologous tumor organoids of patient CRC4 peptide on (human). Nature of the assay: CD137 sort of CD8+ oeT cells after 24 h restimulation with autologous tumor organoids (cells that express the antigen), single-cell RT-PCR; 0% in TIL alone; ex vivo sorted cells.
In assay [2] the target is T2, unknown natural tumor antigen of the autologous tumor organoids of patient CRC2 peptide on (human). In words: CD137 sort of CD8+ oeT cells after 24 h restimulation with autologous tumor organoids (cells that express the antigen), single-cell RT-PCR; 2.8% in TIL alone; ex vivo sorted cells. Conditions: chains alpha TRAV23/DV6*01 TRAJ45*01 CDR3:beta TRBV9*01 TRBJ2-1*01 CDR3.

For assay [3], the target named is T3, unknown natural tumor antigen of the autologous tumor organoids of patient CRC1 peptide on (human). Nature of the assay: CD137 sort of CD8+ oeT cells after 24 h restimulation with autologous tumor organoids (cells that express the antigen), single-cell RT-PCR; 1.2% in TIL alone; ex vivo sorted cells. As to conditions: chains alpha TRAV36/DV7*04 TRAJ30*01 CDR3:beta TRBV6-5*01 TRBJ2-2*01 CDR3.

The target of assay [4] is T4, unknown natural tumor antigen of the autologous tumor organoids of patient CRC3 peptide on (human). In words: CD137 sort of CD8+ oeT cells after 24 h restimulation with autologous tumor organoids (cells that express the antigen), single-cell RT-PCR; 0% in TIL alone; ex vivo sorted cells. Conditions: chains alpha TRAV10*01 TRAJ4*01 CDR3:beta TRBV9*01 TRBJ1-2*01 CDR3.
For assay [5], the target named is T3, unknown natural tumor antigen of the …. In words: CD137 sort of CD8+ oeT cells after 24 h restimulation with autologous tumor organoids (cells that express the antigen), single-cell RT-PCR; 2.5% in TIL alone; ex vivo sorted cells. As to conditions: chains alpha TRAV24*01 TRAJ12*01 CDR3:beta TRBV28*01 TRBJ1-2*01 CDR3.
Assay [6] concerns the target T4, unknown natural tumor antigen of the …. Nature of the assay: CD137 sort of CD8+ oeT cells after 24 h restimulation with autologous tumor organoids (cells that express the antigen), single-cell RT-PCR; 3% in TIL alone; ex vivo sorted cells. As to conditions: chains alpha TRAV14/DV4*01 TRAJ45*01 CDR3:beta TRBV20-1*01 TRBJ2-1*01 CDR3.
In assay [7] the target is T2, unknown natural tumor antigen of the …. In words: CD137 sort of CD8+ oeT cells after 24 h restimulation with autologous tumor organoids (cells that express the antigen), single-cell RT-PCR; 0.5% in TIL alone; ex vivo sorted cells.
Assay [8] has as its target T4, unknown natural tumor antigen of the …. Nature of the assay: CD137 sort of CD8+ oeT cells after 24 h restimulation with autologous tumor organoids (cells that express the antigen), single-cell RT-PCR; 1.3% in TIL alone; ex vivo sorted cells. Conditions: chains alpha TRAV10*01 TRAJ16*02 CDR3:beta TRBV10-3*02 TRBJ2-1*01 CDR3.
Assay [9] has as its target T3, unknown natural tumor antigen of the …. In words: CD137 sort of CD8+ oeT cells after 24 h restimulation with autologous tumor organoids (cells that express the antigen), single-cell RT-PCR; 3.6% in TIL alone; ex vivo sorted cells. As to conditions: chains alpha TRAV35*02 TRAJ10*01 CDR3:beta TRBV28*01 TRBJ2-2*01 CDR3.
Assay [10] concerns the target T1, unknown natural tumor antigen of the …. Nature of the assay: CD137 sort of CD8+ oeT cells after 24 h restimulation with autologous tumor organoids (cells that express the antigen), single-cell RT-PCR; 2.4% in TIL alone; ex vivo sorted cells. As to conditions: chains alpha TRAV20*01 TRAJ4*01 CDR3:beta TRBV12-3*01 TRBJ1-5*01 CDR3.
The target of assay [11] is T2, unknown natural tumor antigen of the …. Nature of the assay: CD137 sort of CD8+ oeT cells after 24 h restimulation with autologous tumor organoids (cells that express the antigen), single-cell RT-PCR; 1.1% in TIL alone; ex vivo sorted cells.
Assay [12] concerns the target T4, unknown natural tumor antigen of the …. In words: CD137 sort of CD8+ oeT cells after 24 h restimulation with autologous tumor organoids (cells that express the antigen), single-cell RT-PCR; 0.4% in TIL alone; ex vivo sorted cells. Conditions: chains alpha TRAV8-6*02 TRAJ20*01 CDR3:beta TRBV6-1*01 TRBJ1-3*01 CDR3.
For assay [13], the target named is T3, unknown natural tumor antigen of the …. In words: CD137 sort of CD8+ oeT cells after 24 h restimulation with autologous tumor organoids (cells that express the antigen), single-cell RT-PCR; 4.3% in TIL alone; ex vivo sorted cells. As to conditions: chains alpha TRAV35*02 TRAJ10*01 CDR3:beta TRBV6-1*01 TRBJ1-2*01 CDR3.

Here are results for 17 molecules from paper PMC11219989.

B1: TCR19 (peptide)
chain 1: AVGRGYGQNFV
chain 2: ASSQDGGLNEKLF
For B1, the frequency among sorted CD8+CD137+ PDO(T)-oeT cells in assay [1] (chains alpha TRAV22*01 TRAJ26*01 CDR3:beta TRBV4-3*01 TRBJ1-4*01 CDR3) is 7.7%.

B2: TCR8 (peptide)
chain 1: ALKAGGGASKLT
chain 2: ASSVGGGVDEQF
As to B2, the frequency among sorted CD8+CD137+ PDO(T)-oeT cells in assay [2] was 9.3%.

B3: TCR20 (peptide)
chain 1: AENMGFQKLV
chain 2: AWTQGANGYT
In turn, B3 gave a frequency among sorted CD8+CD137+ PDO(T)-oeT cells in [1] (chains alpha TRAV13-2*01 TRAJ8*01 CDR3:beta TRBV30*01 TRBJ1-2*01 CDR3) of 7.1%.

B4: TCR5 (peptide)
chain 1: AVSRDDKII
chain 2: ASSYVGNTGELF
B4: in assay [3], the frequency among sorted CD8+CD137+ PDO(T)-oeT cells worked out at 5%.

B5: TCR14 (peptide)
chain 1: VVSFSGGYNKLI
chain 2: ASSVGDRDYGYT
Turning to B5, the frequency among sorted CD8+CD137+ PDO(T)-oeT cells in assay [4] stood at 4%.

B6: TCR3 (peptide)
chain 1: APWMDSSYKLI
chain 2: ASSIGGHDGYT
In the case of B6, the frequency among sorted CD8+CD137+ PDO(T)-oeT cells in assay [5] was found to be 6.7%.

B7: TCR13 (peptide)
chain 1: ANDSGGGADGLT
chain 2: SARGLLGGRAREQF
In the case of B7, the frequency among sorted CD8+CD137+ PDO(T)-oeT cells in [6] was found to be 4%.

B8: TCR18 (peptide)
chain 1: AVRDEGARLM
chain 2: ASSIFSGTGGADTQY
The molecule B8 yielded a frequency among sorted CD8+CD137+ PDO(T)-oeT cells in assay [1] (chains alpha TRAV3*01 TRAJ31*01 CDR3:beta TRBV9*01 TRBJ2-3*01 CDR3) of 10.3%.

B9: TCR7 (peptide)
chain 1: AMREGADSWGKFQ
chain 2: ASSLHGRGDEKLF
In turn, B9 gave a frequency among sorted CD8+CD137+ PDO(T)-oeT cells in [7] (chains alpha TRAV14/DV4*03 TRAJ24*03 CDR3:beta TRBV28*01 TRBJ1-4*01 CDR3) of 12.4%.

B10: TCR10 (peptide)
chain 1: AASPPGGSQGNLI
chain 2: ASSHRTSSRGEQF
In assay [7] (chains alpha TRAV13-1*01 TRAJ42*01 CDR3:beta TRBV4-1*01 TRBJ2-1*01 CDR3), B10 had a frequency among sorted CD8+CD137+ PDO(T)-oeT cells of 3.1%.

B11: TCR12 (peptide)
chain 1: VSGFSDGQKLL
chain 2: ATTKTGERPDEQF
With B11, the frequency among sorted CD8+CD137+ PDO(T)-oeT cells in assay [8] is 8%.

B12: TCR2 (peptide)
chain 1: AGVTGGGNKLT
chain 2: ASSLTSASGELF
For the molecule B12, the frequency among sorted CD8+CD137+ PDO(T)-oeT cells in [9] came to 17.8%.

B13: TCR17 (peptide)
chain 1: AVFSGGYNKLI
chain 2: ASSLEFYSNQPQH
As to B13, the frequency among sorted CD8+CD137+ PDO(T)-oeT cells in [10] worked out at 13.5%.

B14: TCR6 (peptide)
chain 1: AVGDNFNKFY
chain 2: ASSYVGNTGELF
In turn, B14 yielded a frequency among sorted CD8+CD137+ PDO(T)-oeT cells in [11] (chains alpha TRAV8-3*01 TRAJ21*01 CDR3:beta TRBV28*01 TRBJ2-2*01 CDR3) of 13.4%.

B15: TCR15 (peptide)
chain 1: AVSGRSNDYKLS
chain 2: ASSEKRQGAGNTIY
B15 registered a frequency among sorted CD8+CD137+ PDO(T)-oeT cells in assay [12] of 3%.

B16: TCR1 (peptide)
chain 1: AGVTGGGNKLT
chain 2: ASSEGTGFYGYT
B16: in [13], the frequency among sorted CD8+CD137+ PDO(T)-oeT cells was found to be 25.6%.

B17: TCR9 (peptide)
chain 1: AVRGTLSGGSYIPT
chain 2: ASSATSASGELF
Molecule B17 returned a frequency among sorted CD8+CD137+ PDO(T)-oeT cells in assay [11] (chains alpha TRAV1-2*01 TRAJ6*01 CDR3:beta TRBV28*01 TRBJ2-2*01 CDR3) of 8.2%.
